Source: patent US20050020492A1 (MERCK, published 2005)
Like-named read-outs stand apart in the source and are kept apart here. One block for each binder: values may come before it. Positions of bridges follow the written chain, without caps; N, C: chain ends. Non-standard residues stand in square brackets, D forms with d. Cha = N[C@@H](CC1CCCCC1)C(=O)O

Key:
human MCH-1R [1] = molecular target: T1, human MCH-1R (human, UniProt Q99705 1-353); test: cell-based or functional assay
human MCH-2R [2] = molecular target: T2, human MCH-2R (human, UniProt Q969V1 1-340); test: cell-based or functional assay
human MCH-2R [3] = molecular target: T2, human MCH-2R; test: SPA, displacement of [125I]-[Phe13,Tyr19]-hMCH, MCH-2R membranes
Protocol: (§1) After equilibrating at room temperature for 3 hours, the plates were read in a TopCount (Packard, Meriden, Conn.). IC₅₀ calculations were performed using Prism 3.0 (GraphPad. Software, San Diego, Calif.). The IC₅₀ values were measured in three different experiments.

human MCH-1R [4] = molecular target: T1, human MCH-1R; test: ratio of the two SPA IC50s
human MCH-1R [5] = molecular target: T1, human MCH-1R; test: SPA, displacement of [125I]-[Phe13,Tyr19]-hMCH, CHO/MCH-1R membranes
Protocol: as §1

human MCH-1R [6] = molecular target: T1, human MCH-1R; test: cell-based or functional assay; remark: listed apart in the source
human MCH-2R [7] = molecular target: T2, human MCH-2R; test: cell-based or functional assay; remark: listed apart in the source

T2 sequence (Q969V1 whole entry): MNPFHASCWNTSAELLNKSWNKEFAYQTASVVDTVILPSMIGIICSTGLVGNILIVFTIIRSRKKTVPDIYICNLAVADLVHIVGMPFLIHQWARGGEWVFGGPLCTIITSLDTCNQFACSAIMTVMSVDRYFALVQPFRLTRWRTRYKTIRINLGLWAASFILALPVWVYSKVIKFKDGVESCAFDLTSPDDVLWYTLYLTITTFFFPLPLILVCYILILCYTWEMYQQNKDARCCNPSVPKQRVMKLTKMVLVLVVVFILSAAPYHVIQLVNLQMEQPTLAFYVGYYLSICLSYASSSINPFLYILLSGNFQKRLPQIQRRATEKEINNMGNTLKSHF
T1 sequence (Q99705 whole entry): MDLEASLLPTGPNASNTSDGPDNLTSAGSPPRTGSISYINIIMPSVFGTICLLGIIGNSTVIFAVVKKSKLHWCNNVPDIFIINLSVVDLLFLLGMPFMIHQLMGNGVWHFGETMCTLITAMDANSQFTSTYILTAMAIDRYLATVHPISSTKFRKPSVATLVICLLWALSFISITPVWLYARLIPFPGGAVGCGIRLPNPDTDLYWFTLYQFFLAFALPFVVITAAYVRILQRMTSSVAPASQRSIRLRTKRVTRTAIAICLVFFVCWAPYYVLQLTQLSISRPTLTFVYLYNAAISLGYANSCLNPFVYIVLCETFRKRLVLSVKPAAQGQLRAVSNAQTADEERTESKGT

B1: SEQ. ID. NO. 18 (Nle^10 analog of Ac-hMCH(6-16)-NH2) (peptide)
peptide: RCMLXRVYRPC
modifications: N-terminal acetyl; Nle (norleucine) at position 10; C-terminal amide; disulfide cycle
Activation %, aequorin bioluminescence (human MCH-1R [1]): 115% | Selectivity 2/1 (MCH-2R/MCH-1R EC50 activity ratio) (human MCH-1R [1]): 0.4 ratio | Activation %, aequorin bioluminescence (human MCH-2R [2]): 97% | IC50 (human MCH-2R [3]): 1.9 nM | Selectivity 2/1 (MCH-2R/MCH-1R IC50 ratio) (human MCH-1R [4]): 21 ratio | IC50 (human MCH-1R [5]): 0.1 nM

B2: SEQ. ID. NO. 10 (Ac-D-Asn^6 analog of Ac-hMCH(6-16)-NH2) (peptide)
peptide: XCMLGRVYRPC
modifications: N-terminal acetyl; D-Asn at position 6; C-terminal amide; disulfide cycle
Activation %, aequorin bioluminescence (human MCH-1R [6]): 113% | EC50, aequorin bioluminescence (human MCH-1R [6]): 260 nM | Activation %, aequorin bioluminescence (human MCH-2R [7]): 42%

B3: SEQ. ID. NO. 19 (Cha^10 analog of Ac-hMCH(6-16)-NH2) (peptide)
peptide: Ac-RCML[Cha]RVYRPC-NH2
modifications: disulfide 2-11
Activation %, aequorin bioluminescence (human MCH-1R [1]): 76% | EC50, aequorin bioluminescence (human MCH-1R [1]): 1200 nM | Selectivity 2/1 (MCH-2R/MCH-1R EC50 activity ratio) (human MCH-1R [1]): 0.25 ratio | Activation %, aequorin bioluminescence (human MCH-2R [2]): 74% | EC50, aequorin bioluminescence (human MCH-2R [2]): 300 nM | IC50 (human MCH-2R [3]): 55 nM | Selectivity 2/1 (MCH-2R/MCH-1R IC50 ratio) (human MCH-1R [4]): 11 ratio | IC50 (human MCH-1R [5]): 5 nM

B9: SEQ. ID. NO. 12 (Ac-D-Glu^6 analog of Ac-hMCH(6-16)-NH2) (peptide)
peptide: XCMLGRVYRPC
modifications: not fully specified; N-terminal acetyl; D-Glu at position 6; C-terminal amide; disulfide cycle
Activation %, aequorin bioluminescence (human MCH-1R [6]): 100% | Activation %, aequorin bioluminescence (human MCH-2R [7]): 20%

B10: SEQ. ID. NO. 8 (Ac-D-Pro^6 analog of Ac-hMCH(6-16)-NH2) (peptide)
peptide: XCMLGRVYRPC
modifications: N-terminal acetyl; D-Pro at position 6; C-terminal amide; disulfide cycle
Activation %, aequorin bioluminescence (human MCH-1R [6]): 120%

B11: SEQ. ID. NO. 11 (Ac-D-Ser^6 analog of Ac-hMCH(6-16)-NH2) (peptide)
peptide: XCMLGRVYRPC
modifications: N-terminal acetyl; D-Ser at position 6; C-terminal amide; disulfide cycle
Activation %, aequorin bioluminescence (human MCH-1R [6]): 114% | EC50, aequorin bioluminescence (human MCH-1R [6]): 160 nM | Activation %, aequorin bioluminescence (human MCH-2R [7]): 39%

B12: SEQ. ID. NO. 5 (Ac-D-Arg^6 analog of Ac-hMCH(6-16)-NH2) (peptide)
peptide: XCMLGRVYRPC
modifications: N-terminal acetyl; D-Arg at position 6; C-terminal amide; disulfide cycle
Activation %, aequorin bioluminescence (human MCH-1R [6]): 97%

B13: SEQ. ID. NO. 3 (Gva^6 analog of Ac-hMCH(6-16)-NH2) (peptide)
peptide: XCMLGRVYRPC
modifications: position 6 is Gva, des-amino-arginine (5-guanidinovaleric acid), no acetyl; C-terminal amide; disulfide cycle
Activation %, aequorin bioluminescence (human MCH-1R [6]): 49% | Activation %, aequorin bioluminescence (human MCH-2R [7]): 102%

More lines, now with the values ahead:

Activation %, aequorin bioluminescence (human MCH-1R [1]): 75% | EC50, aequorin bioluminescence (human MCH-1R [1]): 66 nM | Selectivity 2/1 (MCH-2R/MCH-1R EC50 activity ratio) (human MCH-1R [1]): 0.75 ratio | Activation %, aequorin bioluminescence (human MCH-2R [2]): 88% | EC50, aequorin bioluminescence (human MCH-2R [2]): 50 nM | IC50 (human MCH-2R [3]): 1.9 nM | Selectivity 2/1 (MCH-2R/MCH-1R IC50 ratio) (human MCH-1R [4]): 19 ratio | IC50 (human MCH-1R [5]): 0.1 nM
B4: SEQ. ID. NO. 20 (Phe^10 analog of Ac-hMCH(6-16)-NH2) (peptide)
peptide: Ac-RCMLFRVYRPC-NH2
modifications: disulfide 2-11 (inferred)

Activation %, aequorin bioluminescence (human MCH-1R [1]): 21% | EC50, aequorin bioluminescence (human MCH-1R [1]): > 10000 nM | Activation %, aequorin bioluminescence (human MCH-2R [2]): 22% | EC50, aequorin bioluminescence (human MCH-2R [2]): > 10000 nM | IC50 (human MCH-1R [5]): 290 nM
B5: SEQ. ID. NO. 28 (Glu^10 analog of Ac-hMCH(6-16)-NH2) (peptide)
peptide: Ac-RCMLERVYRPC-NH2
modifications: disulfide 2-11 (inferred)
notes: also called Glu^10 peptide

Activation %, aequorin bioluminescence (human MCH-1R [1]): 7% | EC50, aequorin bioluminescence (human MCH-1R [1]): > 10000 nM | Activation %, aequorin bioluminescence (human MCH-2R [2]): 38% | EC50, aequorin bioluminescence (human MCH-2R [2]): 1660 nM | IC50 (human MCH-2R [3]): 420 nM | Selectivity 2/1 (MCH-2R/MCH-1R IC50 ratio) (human MCH-1R [4]): 0.7 ratio | IC50 (human MCH-1R [5]): 640 nM
B6: SEQ. ID. NO. 23 (Arg^10 analog of Ac-hMCH(6-16)-NH2) (peptide)
peptide: Ac-RCMLRRVYRPC-NH2
modifications: disulfide 2-11 (inferred)

Activation %, aequorin bioluminescence (human MCH-1R [1]): 10% | EC50, aequorin bioluminescence (human MCH-1R [1]): > 10000 nM | Activation %, aequorin bioluminescence (human MCH-2R [2]): 13% | EC50, aequorin bioluminescence (human MCH-2R [2]): > 10000 nM | IC50 (human MCH-2R [3]): 3500 nM | Selectivity 2/1 (MCH-2R/MCH-1R IC50 ratio) (human MCH-1R [4]): 5 ratio | IC50 (human MCH-1R [5]): 760 nM
B7: SEQ. ID. NO. 22 (Pro^10 analog of Ac-hMCH(6-16)-NH2) (peptide)
peptide: Ac-RCMLPRVYRPC-NH2
modifications: disulfide 2-11 (inferred)

Activation %, aequorin bioluminescence (human MCH-1R [1]): 43% | EC50, aequorin bioluminescence (human MCH-1R [1]): 5700 nM | Selectivity 2/1 (MCH-2R/MCH-1R EC50 activity ratio) (human MCH-1R [1]): 1 ratio | Activation %, aequorin bioluminescence (human MCH-2R [2]): 40% | EC50, aequorin bioluminescence (human MCH-2R [2]): 6050 nM | IC50 (human MCH-2R [3]): 1460 nM | Selectivity 2/1 (MCH-2R/MCH-1R IC50 ratio) (human MCH-1R [4]): 86 ratio | IC50 (human MCH-1R [5]): 17 nM
B8: SEQ. ID. NO. 24 (Lys^10 analog of Ac-hMCH(6-16)-NH2) (peptide)
peptide: Ac-RCMLKRVYRPC-NH2
modifications: disulfide 2-11 (inferred)
